Assay [1] concerns the target 48d.cl IC, fusion version (gpCore + 48d heavy chain fusion, Fab-Fab-crosslinked K126C) (HIV-1 strain BG505). Nature of the assay: native gel or EMSA. On the technique in general: A gel shift assay detects complexes by their altered migration in electrophoresis.
Assay [2] addresses 48d.cl IC, 3 plasmid version (Fab-Fab-crosslinked, K126C) (HIV-1 strain BG505). Nature of the assay: native gel or EMSA.

Consider wtA32 (antibody), for which the stoichiometry N in assay [1] and in assay [2] was 2 in each case.
On to wtVRC01 (antibody), for which the stoichiometry N in assay [1] and in assay [2] was 1 throughout.

(Values after paper PMC12846365.)
